From the supplement of paper PMC10567573

B1: FUT8 (parent)
chain: YAHQPRTADEIPMEPGDIIGVAGN

Variants of: B1
Assay: protein stability index of a GFP-peptide fusion (GPS, HEK-293T) (PSI 1-6); higher = more stable
Settings: c terminus: a fixed tail appended
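Also: lentivirally expressed fusions sorted by FACS into six bins by GFP to DsRed ratio, PSI derived from sequencing read proportions per bin multiplied by bin number.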

**Q.** With YAHQPRTADKIPMEPGDIIGVAGN as the variant, how does the protein stability index read?
**A.** 2.9

**Q.** Which protein stability index does the source give for YAHQPRTADEICMEPGDIIGVAGN here?
**A.** 3.48

**Q.** Which protein stability index does the source give for YAHQPRTADEIGMEPGDIIGVAGN here?
**A.** 3.6

**Q.** Which protein stability index does the source give for YAHQPRTADEIWMEPGDIIGVAGN here?
**A.** 2.4

**Q.** Which protein stability index does the source give for YAHQPRTADEILMEPGDIIGVAGN here?
**A.** 3.57

**Q.** With YAHQPRTADEIYMEPGDIIGVAGN as the variant, how does the protein stability index read?
**A.** 3.21

**Q.** Which protein stability index does the source give for YAHQPRTADEIDMEPGDIIGVAGN here?
**A.** 4.2

**Q.** For YAHQPRTADEIIMEPGDIIGVAGN, which protein stability index is on record?
**A.** 3.27

**Q.** Which protein stability index does the source give for YAHQPRTADEISMEPGDIIGVAGN here?
**A.** 4.08

**Q.** With YAHQPRTADEIRMEPGDIIGVAGN as the variant, how does the protein stability index read?
**A.** 3.28

**Q.** For YAHQPRTADEITMEPGDIIGVAGN, which protein stability index is on record?
**A.** 4.09

**Q.** For YAHQPRTADEIVMEPGDIIGVAGN, which protein stability index is on record?
**A.** 3.72

**Q.** With YAHQPRTADEIKMEPGDIIGVAGN as the variant, how does the protein stability index read?
**A.** 3.96

**Q.** Which protein stability index does the source give for YAHQPRTADEIFMEPGDIIGVAGN here?
**A.** 3.27

**Q.** For YAHQPRTADEIHMEPGDIIGVAGN, which protein stability index is on record?
**A.** 3.41

**Q.** Which protein stability index does the source give for YAHQPRTADEIEMEPGDIIGVAGN here?
**A.** 4.2

**Q.** Which protein stability index does the source give for YAHQPRTADEIAMEPGDIIGVAGN here?
**A.** 4.23

**Q.** With YAHQPRTADEIMMEPGDIIGVAGN as the variant, how does the protein stability index read?
**A.** 3.58

**Q.** Which protein stability index does the source give for YAHQPRTADEIQMEPGDIIGVAGN here?
**A.** 4.47

**Q.** For YAHQPRTADEINMEPGDIIGVAGN, which protein stability index is on record?
**A.** 3.73

**Q.** With YAHQPRTADEIPMEHGDIIGVAGN as the variant, how does the protein stability index read?
**A.** 3.86

**Q.** For YAHQPRTADEIPMEGGDIIGVAGN, which protein stability index is on record?
**A.** 4.16

**Q.** Which protein stability index does the source give for YAHQPRTADEIPMEAGDIIGVAGN here?
**A.** 4.38

**Q.** With YAHQPRTADEIPMEEGDIIGVAGN as the variant, how does the protein stability index read?
**A.** 4.57

**Q.** With YAHQPRTADEIPMECGDIIGVAGN as the variant, how does the protein stability index read?
**A.** 3.58

**Q.** Which protein stability index does the source give for YAHQPRTADEIPMEDGDIIGVAGN here?
**A.** 4.32

**Q.** Which protein stability index does the source give for YAHQPRTADEIPMEFGDIIGVAGN here?
**A.** 3.52

**Q.** For YAHQVRTADEIPMEPGDIIGVAGN, which protein stability index is on record?
**A.** 3.92

**Q.** For YAHQYRTADEIPMEPGDIIGVAGN, which protein stability index is on record?
**A.** 3.48

**Q.** For YAHQNRTADEIPMEPGDIIGVAGN, which protein stability index is on record?
**A.** 4.33

**Q.** For YAHQSRTADEIPMEPGDIIGVAGN, which protein stability index is on record?
**A.** 3.85

**Q.** For YAHQLRTADEIPMEPGDIIGVAGN, which protein stability index is on record?
**A.** 3.75

**Q.** With YAHQWRTADEIPMEPGDIIGVAGN as the variant, how does the protein stability index read?
**A.** 1.88

**Q.** Which protein stability index does the source give for YAHQTRTADEIPMEPGDIIGVAGN here?
**A.** 4.31

**Q.** For YAHQMRTADEIPMEPGDIIGVAGN, which protein stability index is on record?
**A.** 3.53

**Q.** Which protein stability index does the source give for YAHQQRTADEIPMEPGDIIGVAGN here?
**A.** 4.12

**Q.** For YAHQRRTADEIPMEPGDIIGVAGN, which protein stability index is on record?
**A.** 3.55

**Q.** For YAHQPRTADEIPWEPGDIIGVAGN, which protein stability index is on record?
**A.** 3.08

**Q.** With YAHQPRTADEIPNEPGDIIGVAGN as the variant, how does the protein stability index read?
**A.** 4.46

**Q.** Which protein stability index does the source give for YAHQPRTADEIPYEPGDIIGVAGN here?
**A.** 4.12

**Q.** With YAHQPRTADEIPKEPGDIIGVAGN as the variant, how does the protein stability index read?
**A.** 3.95

**Q.** With YAHQPRTADEIPDEPGDIIGVAGN as the variant, how does the protein stability index read?
**A.** 4.82

**Q.** With YAHQPRTADEIPFEPGDIIGVAGN as the variant, how does the protein stability index read?
**A.** 3.43

**Q.** With YAHQPRTADEIPHEPGDIIGVAGN as the variant, how does the protein stability index read?
**A.** 4.33

**Q.** For YAHQPRTADEIPEEPGDIIGVAGN, which protein stability index is on record?
**A.** 4.73

**Q.** With YAHQPRTADEIPLEPGDIIGVAGN as the variant, how does the protein stability index read?
**A.** 4.1

**Q.** With YAHQPRTADEIPTEPGDIIGVAGN as the variant, how does the protein stability index read?
**A.** 4.34

**Q.** For YAHQPRTADEIPGEPGDIIGVAGN, which protein stability index is on record?
**A.** 4.52

**Q.** With YAHQPRTADEIPQEPGDIIGVAGN as the variant, how does the protein stability index read?
**A.** 4.71

**Q.** Which protein stability index does the source give for YAHQPRTADEIPSEPGDIIGVAGN here?
**A.** 4.07

**Q.** Which protein stability index does the source give for YAHQPRTADEIPREPGDIIGVAGN here?
**A.** 4.43

**Q.** With YAHQPRTADEIPIEPGDIIGVAGN as the variant, how does the protein stability index read?
**A.** 3.87

**Q.** Which protein stability index does the source give for YAHQPRTADEIPCEPGDIIGVAGN here?
**A.** 3.9

**Q.** For YAHQPRTADEIPPEPGDIIGVAGN, which protein stability index is on record?
**A.** 4.18

**Q.** For YAHQPRTADEIPVEPGDIIGVAGN, which protein stability index is on record?
**A.** 4.68

**Q.** Which protein stability index does the source give for YAHQPRTADEIPAEPGDIIGVAGN here?
**A.** 4.69

**Q.** Which protein stability index does the source give for YAHQPQTADEIPMEPGDIIGVAGN here?
**A.** 4.47

**Q.** For YAHQPTTADEIPMEPGDIIGVAGN, which protein stability index is on record?
**A.** 4.59

**Q.** With YAHQPYTADEIPMEPGDIIGVAGN as the variant, how does the protein stability index read?
**A.** 3.73

**Q.** Which protein stability index does the source give for YAHQPVTADEIPMEPGDIIGVAGN here?
**A.** 4.44

**Q.** For YAHQPPTADEIPMEPGDIIGVAGN, which protein stability index is on record?
**A.** 4.78

**Q.** Which protein stability index does the source give for YAHQPMTADEIPMEPGDIIGVAGN here?
**A.** 3.84

**Q.** Which protein stability index does the source give for YAHQPNTADEIPMEPGDIIGVAGN here?
**A.** 4.33

**Q.** For YAHQPGTADEIPMEPGDIIGVAGN, which protein stability index is on record?
**A.** 4.65

**Q.** For YAHQPKTADEIPMEPGDIIGVAGN, which protein stability index is on record?
**A.** 3.99

**Q.** With YAHQPCTADEIPMEPGDIIGVAGN as the variant, how does the protein stability index read?
**A.** 4.05

**Q.** Which protein stability index does the source give for YAHQPETADEIPMEPGDIIGVAGN here?
**A.** 5.23

**Q.** With YAHQPFTADEIPMEPGDIIGVAGN as the variant, how does the protein stability index read?
**A.** 3.46

**Q.** With YAHQPATADEIPMEPGDIIGVAGN as the variant, how does the protein stability index read?
**A.** 4.48

**Q.** With YAHQPDTADEIPMEPGDIIGVAGN as the variant, how does the protein stability index read?
**A.** 4.54

**Q.** Which protein stability index does the source give for YAHQPWTADEIPMEPGDIIGVAGN here?
**A.** 2.62

**Q.** With YAHQPLTADEIPMEPGDIIGVAGN as the variant, how does the protein stability index read?
**A.** 4.2

**Q.** With YAHQPITADEIPMEPGDIIGVAGN as the variant, how does the protein stability index read?
**A.** 4.12

**Q.** With YAHQPHTADEIPMEPGDIIGVAGN as the variant, how does the protein stability index read?
**A.** 4.25

**Q.** For YAHQPSTADEIPMEPGDIIGVAGN, which protein stability index is on record?
**A.** 4.46

**Q.** For YAHQPRTADEEPMEPGDIIGVAGN, which protein stability index is on record?
**A.** 4.37

**Q.** Which protein stability index does the source give for YAHQPRTADEPPMEPGDIIGVAGN here?
**A.** 4.12

**Q.** With YAHQPRTADEYPMEPGDIIGVAGN as the variant, how does the protein stability index read?
**A.** 3.93

**Q.** For YAHQPRTADEWPMEPGDIIGVAGN, which protein stability index is on record?
**A.** 3.44

**Q.** For YAHQPRTADEKPMEPGDIIGVAGN, which protein stability index is on record?
**A.** 4.27

**Q.** With YAHQPRTADEAPMEPGDIIGVAGN as the variant, how does the protein stability index read?
**A.** 4.44

**Q.** Which protein stability index does the source give for YAHQPRTADEDPMEPGDIIGVAGN here?
**A.** 4.65

**Q.** With YAHQPRTADEVPMEPGDIIGVAGN as the variant, how does the protein stability index read?
**A.** 4.55

**Q.** With YAHQPRTADELPMEPGDIIGVAGN as the variant, how does the protein stability index read?
**A.** 3.47

**Q.** Which protein stability index does the source give for YAHQPRTADEFPMEPGDIIGVAGN here?
**A.** 3.71

**Q.** Which protein stability index does the source give for YAHQPRTADENPMEPGDIIGVAGN here?
**A.** 4.26

**Q.** Which protein stability index does the source give for YAHQPRTADEHPMEPGDIIGVAGN here?
**A.** 4.06

**Q.** With YAHQPRTADEGPMEPGDIIGVAGN as the variant, how does the protein stability index read?
**A.** 3.98

**Q.** Which protein stability index does the source give for YAHQPRTADECPMEPGDIIGVAGN here?
**A.** 4.26

**Q.** With YAHQPRTADETPMEPGDIIGVAGN as the variant, how does the protein stability index read?
**A.** 4.2

**Q.** With YAHQPRTADEMPMEPGDIIGVAGN as the variant, how does the protein stability index read?
**A.** 4.09

**Q.** For YAHQPRTADEQPMEPGDIIGVAGN, which protein stability index is on record?
**A.** 4.46

**Q.** For YAHQPRTADERPMEPGDIIGVAGN, which protein stability index is on record?
**A.** 4.07

**Q.** With YAHQPRTADESPMEPGDIIGVAGN as the variant, how does the protein stability index read?
**A.** 4.09
